3 molecules from paper doi:10.1101/2023.01.27.525918 (bioRxiv, 2023) can be followed below.

The target of series [1] is T1, Human RPA complex (RPA70, RPA32, RPA14), recombinant full length (human, UniProt P27694;P15927;P35244). Briefly: pull-down.
For series [2], the target named is ZUP1;RPA complex WT (RPA70/RPA32/RPA14) (Homo sapiens;Homo sapiens, UniProt Q96AP4;P27694;P15927;P35244 1-578;1-616;1-270;1-121, |). In words: EMSA. (Mobility shift assays separate free from complexed probe on a gel.)
Chain of ZUP1;RPA complex WT (RPA70/RPA32/RPA14) (P27694 whole entry, chain 2 of 3): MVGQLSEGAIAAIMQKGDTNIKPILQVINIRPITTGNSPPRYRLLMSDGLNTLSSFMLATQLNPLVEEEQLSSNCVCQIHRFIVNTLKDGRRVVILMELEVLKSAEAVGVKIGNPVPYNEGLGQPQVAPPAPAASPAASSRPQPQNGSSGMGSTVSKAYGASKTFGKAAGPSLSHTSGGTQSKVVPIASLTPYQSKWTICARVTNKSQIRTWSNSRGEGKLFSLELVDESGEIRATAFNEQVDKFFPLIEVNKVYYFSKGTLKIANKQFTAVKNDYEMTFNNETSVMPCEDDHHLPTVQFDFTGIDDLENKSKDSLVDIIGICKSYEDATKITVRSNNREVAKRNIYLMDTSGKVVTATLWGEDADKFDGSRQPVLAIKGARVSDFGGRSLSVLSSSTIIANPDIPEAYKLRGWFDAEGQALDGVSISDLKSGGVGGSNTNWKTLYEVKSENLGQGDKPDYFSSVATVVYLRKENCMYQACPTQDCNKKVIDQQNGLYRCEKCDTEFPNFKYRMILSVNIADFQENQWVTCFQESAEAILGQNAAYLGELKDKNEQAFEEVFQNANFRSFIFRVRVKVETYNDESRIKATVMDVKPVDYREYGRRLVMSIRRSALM
Chain of ZUP1;RPA complex WT (RPA70/RPA32/RPA14) (P15927 whole entry, chain 3 of 3): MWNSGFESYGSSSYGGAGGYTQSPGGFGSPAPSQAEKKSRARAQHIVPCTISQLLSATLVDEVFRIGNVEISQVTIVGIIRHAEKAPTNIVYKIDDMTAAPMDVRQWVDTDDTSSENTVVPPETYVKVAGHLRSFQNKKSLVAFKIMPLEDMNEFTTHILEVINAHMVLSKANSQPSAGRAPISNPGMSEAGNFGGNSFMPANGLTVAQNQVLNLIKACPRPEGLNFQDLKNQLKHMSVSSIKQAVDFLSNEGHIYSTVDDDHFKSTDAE
Chain of ZUP1;RPA complex WT (RPA70/RPA32/RPA14) (P35244 whole entry, chain 4 of 3): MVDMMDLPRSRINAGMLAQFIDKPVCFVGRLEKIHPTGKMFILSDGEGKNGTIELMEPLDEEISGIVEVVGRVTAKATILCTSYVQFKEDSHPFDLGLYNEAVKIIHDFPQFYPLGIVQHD
Series [3] deals with RPA70 as the subunit of the purified recombinant RPA complex (human, UniProt P27694 1-616). Briefly: cross-linking.
Chain of UniProt P27694 (P27694 whole entry, one chain of several): as the sequence (P27694 whole entry, chain 2 of 3) above
The target in series [4] is T1, Human RPA complex (RPA70, RPA32, …). In words: SEC. In general terms: In gel filtration, larger molecules generally elute earlier.

T1 sequence (P27694 whole entry, chain 1 of 3): as the sequence (P27694 whole entry, chain 2 of 3) above
T1 sequence (P15927 whole entry, chain 2 of 3): as the sequence (P15927 whole entry, chain 3 of 3) above
T1 sequence (P35244 whole entry, chain 3 of 3): as the sequence (P35244 whole entry, chain 4 of 3) above

B1: GST-ZUP1 α-2/3-C78 (aa 272-578) (domain or fragment)
chain: SGGYKQQQLRNMEIEVNRGRMPPSEFHRRKADMMESLALGFDDGKTKTSGIIEALHRYYQNAATDVRRVWLSSVVDHFHSSLGDKGWGCGYRNFQMLLSSLLQNDAYNDCLKGMLIPCIPKIQSMIEDAWKEGFDPQGASQLNNRLQGTKAWIGACEVYILLTSLRVKCHIVDFHKSTGPLGTHPRLFEWILNYYSSEGEGSPKVVCTSKPPIYLQHQGHSRTVIGIEEKKNRTLCLLILDPGCPSREMQKLLKQDIEASSLKQLRKSMGNLKHKQYQILAVEGALSLEEKLARRQASQVFTAEKIP
As for B1, the binding result in series [1] is listed as “binds”.

B2: Gap-26 (mixed)
DNA 1: CTATGGCGAGGCGATTATCAACCCATTTAGTCGTAATAGTGAAGAGTCACGACAACATCG
DNA 2: TAATCGCCTCGCCATAG
DNA 3: CGATGTTGTCGTGACTC
Take B2: the binding result in series [2] is on record as “binds”.

B3: ZUP1 C360A (catalytically inactive mutant of full length ZUP1) (enzyme)
chain: MLSCNICGETVTSEPDMKAHLIVHMESEIICPFCKLSGVNYDEMCFHIETAHFEQNTLERNFERINTVQYGTSDNKKDNTLQCGMEVNSSILSGCASNHPKNSAQNLTKDSTLKHEGFYSENLTESRKFLKSREKQSSLTEIKGSVYETTYSPPECPFCGKIEEHSEDMETHVKTKHANLLDIPLEDCDQPLYDCPMCGLICTNYHILQEHVDLHLEENSFQQGMDRVQCSGDLQLAHQLQQEEDRKRRSEESRQEIEEFQKLQRQYGLDNSGGYKQQQLRNMEIEVNRGRMPPSEFHRRKADMMESLALGFDDGKTKTSGIIEALHRYYQNAATDVRRVWLSSVVDHFHSSLGDKGWGAGYRNFQMLLSSLLQNDAYNDCLKGMLIPCIPKIQSMIEDAWKEGFDPQGASQLNNRLQGTKAWIGACEVYILLTSLRVKCHIVDFHKSTGPLGTHPRLFEWILNYYSSEGEGSPKVVCTSKPPIYLQHQGHSRTVIGIEEKKNRTLCLLILDPGCPSREMQKLLKQDIEASSLKQLRKSMGNLKHKQYQILAVEGALSLEEKLARRQASQVFTAEKIP
Take B3: the binding result in series [3] and in series [4] was “binds” in each case.
